Measured values published in patent US20220033483A1 (GUAGNDONG FEIPENG BIOLOGICAL, published 2022).
Where a chain is given by its changes, count along the chain named. Like-named read-outs stand apart in the source and are kept apart here.

B1: Anti-cTnI 7B9 monoclonal antibody (recombinant, Sample 1) (antibody, mouse IgG1, kappa, V domains shown)
VH: QVQLQQSGTELAKPGASVKFSCKASDYTFSTYWMYWIKQRPGQGLEWIGYLNPSSGHTEYNQRFKDKATLTADKSSSTAYMQLNSLTSEDSAVYYCARKYFGPFAMDYWGQGTSVTVSS
VL: EIFLTQSPAIMSASPGEKVTMTCSASTTVSYAHWYQQKSGTSPKRWLYDSSKIASGIPVRFSGSGSGTSYSLTISSMEAEDAATYYCQNWSTQPYTFGGGTKLEIKR
notes: Recombinant mouse antibody expressed in CHO cells; also called WT; Anti-cTnI 7B9 antibody
B2: Mutation 4 (antibody, V domains shown)
VH: B1 VH with D26N, E59K, A105N
VL: B1 VL with A32E, S50Q, N89V
notes: other CDR sites as WT
B3: Mutation 5 (antibody, V domains shown)
VH: B1 VH with D26W, E59V, A105S
VL: B1 VL with A32S, S50Y, N89E
notes: other CDR sites as WT
B4: Mutation 3 (antibody, V domains shown)
VH: B1 VH with D26I, E59G, A105V
VL: B1 VL with A32I, S50T, N89R
notes: other CDR sites as WT
B5: Mutation 2 (antibody, V domains shown)
VH: B1 VH with D26L, A105I
VL: B1 VL with S50T, N89V
notes: other CDR sites as WT
B6: Mutation 1 (antibody, V domains shown)
VH: B1 VH with D26G, E59D, A105G
VL: B1 VL with A32V, S50T, N89Q
notes: other CDR sites as WT

Experiments:
[1] = target: T1, cTnI quality control product recombinant protein (human, UniProt P19429 1-210, limits assumed); test: AMC biosensor, antibody on sensor
T1 construct: the assay paragraphs only say cTnI; also called cardiac troponin I; cTnI antigen
Procedure: (§1) Operating process: it is equilibrated in Buffer 1 (PBST) for 60 s, the antibody is immobilized in an antibody solution for 300 s, incubated in Buffer 2 (PBST) for 180 s, bound in antigen solution for 420 s, dissociated in the Buffer 2 for 1200 s, 10 mM of GLY solution with pH 1.69 and Buffer 3 are used for sensor regeneration, and data is output.

[2] = target: T1, cTnI quality control product …; test: AMC biosensor, antibody on sensor; remark: listed apart in the source
Procedure: as §1

[3] = target: T1, cTnI quality control product …; test: capture ELISA, antibody 1.372 ng/ml, cTnI 0.15 ug/ml
Procedure: (§2) After mutation, the antibody activity is detected, 1 μg/ml of goat anti-mouse IgG is diluted with coating solution to coat a microwell plate, 100 μL per well, and overnight at 4 DEG C.; on the next day, it is washed twice with washing solution, and patted dry; blocking solution (20% BSA+80% PBS) is added, 120 μL per well, 37 DEG C., and 1 h, and patted dry; a diluted cTnI monoclonal antibody is added, 100 μL/well, 37 DEG C., and 60 min; liquid in the plate is shaken off, patted dry, and […] of mouse negative blood is added for blocking, 120 μl per well, 37 DEG C., 1 h; liquid in the plate is shaken off, patted dry, a diluted cTnI antigen (0.15 μg/ml) is added, 100 μL per well, 37 DEG C., and 40 min; it is washed for 5 times with the washing solution, and patted dry; another strain of the cTnI monoclonal antibody (1:5K) labeled with HRP is added, 100 μL per well, 37 DEG C., and 30 min; color developing solution A (50 μL/well) is added, color developing solution B (50 μL/well) is added, 10 min; stop solution is added, 50 μL/well; and a OD value is read at 450 nm (refer to 630 nm) on a microplate reader.

[4] = target: T1, cTnI quality control product …; test: capture ELISA, antibody 4.115 ng/ml, cTnI 0.15 ug/ml
Procedure: as §2

[5] = target: T1, cTnI quality control product …; test: capture ELISA, antibody 12.346 ng/ml, cTnI 0.15 ug/ml
Procedure: as §2

[6] = target: T1, cTnI quality control product …; test: capture ELISA, antibody 37.037 ng/ml, cTnI 0.15 ug/ml
Procedure: as §2

[7] = target: T1, cTnI quality control product …; test: capture ELISA, antibody 111.111 ng/ml, cTnI 0.15 ug/ml
Procedure: as §2

[8] = target: T1, cTnI quality control product …; test: capture ELISA, antibody 333.333 ng/ml, cTnI 0.15 ug/ml
Procedure: as §2

[9] = target: T1, cTnI quality control product …; test: capture ELISA, antibody 1000.000 ng/ml, cTnI 0.15 ug/ml
Procedure: as §2

[10] = target: T1, cTnI quality control product …; test: capture ELISA, antibody 0.000 ng/ml (blank), cTnI 0.15 ug/ml
Procedure: as §2

T1 sequence (P19429 whole entry): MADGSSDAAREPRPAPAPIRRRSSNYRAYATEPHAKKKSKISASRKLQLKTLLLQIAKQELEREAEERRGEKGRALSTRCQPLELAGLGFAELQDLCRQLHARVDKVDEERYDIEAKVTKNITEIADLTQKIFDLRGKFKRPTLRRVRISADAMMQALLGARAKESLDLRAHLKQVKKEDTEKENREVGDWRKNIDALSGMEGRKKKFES

Binder	Kd [1] [nM]	koff [1] [s⁻¹]	kon [1] [M⁻¹ s⁻¹]	Kd [2] [nM]	koff [2] [s⁻¹]	kon [2] [M⁻¹ s⁻¹]	OD 450 nm [3] [OD]	OD 450 nm [4] [OD]	OD 450 nm [5] [OD]	OD 450 nm [6] [OD]	OD 450 nm [7] [OD]	OD 450 nm [8] [OD]	OD 450 nm [9] [OD]	OD 450 nm [10] [OD]
B1	12.9	0.000368	28600	12.9	0.000368	28600	0.174	0.475	0.947	1.7	1.88	2.01	2.1	0.144
B2	56700	0.0371	654								0.374	0.678	1.28	
B3	978000	0.687	702								0.247	0.514	1.12	
B4	17.8	0.000481	27000				0.367	0.978	1.41	2	2	2.11	2.21	0.204
B5	15.6	0.000434	27800				0.528	1.15	1.61	2.13	2.17	2.3	2.33	0.224
B6	9.96	0.000263	26400	9.96	0.000263	26400	1.03	1.97	2.34	2.36	2.4	2.4	2.34	0.193
